Assay: yeast display, Sf9 membrane polyspecificity reagent, FACS + sequencing; frameworks hold sequencing errors
Outline: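 Synthetic nanobody libraries on Saccharomyces cerevisiae BJ5465 were galactose-induced for 36–48 hours, stained 1 hour at 4 °C with 10% biotinylated, detergent-solubilized Sf9 membrane reagent and enriched on streptavidin microbeads. FACS then separated cells into low and high (top ~1%) gates by anti-HA (expression) and streptavidin (reagent binding) fluorescence. Genes were colony-PCR amplified, MiSeq 2 × 250 sequenced and CDR-length filtered. A clone's polyreactivity label is that of its gate of origin.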

Row | Sequence | polyreactivity (PSR sort gate)
1 | QVQLVESGGGLVQAGGSLRLSCAASGFTLYSYVMGWYRQAPGKERELVAAISRSGVSTHYADSVKGRFTISRDNAKNTVYLQMNSLKPEDTAVYYCNKVYYYVGTLDYWGQGTQVTVSS | high polyreactivity
2 | QVQLVESGGGLVQAGGSLRLSCAASGFTFSYYAMGWYIQAPGKERELVATITWGGGRTYYADSVKGRFTISRDNAKNTVYLQMNSLKPEDTAVYYCNAERTYFQYYRNYDYWGQGTKVTVSS | low polyreactivity
3 | QVQLVESGGGLVQAGGSLRLSCAASGRIFGTYTMGWYRQAPGKERELVAAISRNGGSTYYADSVKGRITISRDNAKNTVYLQMNSLKPEDTAVYYCNAERRDDRGFDYWGQGTQVTVSS | low polyreactivity
4 | QVQLVESGGGLVQAGGSLRLSCAASGRTFKGYAMGWYRQAPGKERELVAAITGSVGSTYYADSVKGRFTISRDNAKNTVYLQMNSLKPEDTAVYYCAKRWKATRARYDYWGQGTQVTVSS | high polyreactivity
5 | QVQLVESGGGLVQAGGSLRVSCAASGSTFRVNGMGGYRQAPGKERELLATIRGRGGTTYYADSVKGRFTISRDNAKTTVYLQMNSLKPDDTAVSYCAATNVKRTEGYTPDYDYWGHGTQVTVSS | high polyreactivity
6 | QVQIEESGGGLVQAGGSLRLTCAASGRIFYLNAMGWYRQAPGKERELVAGITNSTTGTYYADSVKGRFTISRDNAKNSVYLQMNSLKPEDTAVFYCNTDVAYEEPVETYDYWGQGTQVTVSS | low polyreactivity
7 | QVQLVESGGGLVQAGGSLRLSCAASGSTVPQYTMGWYRQAPGKERELVAAITKSGGSTYYADSVKGRFTISRDNAKNTVYLQMNSLKPEDTAVYYCNRRWGWRLYDYWGQGTQVTVSS | high polyreactivity
8 | QVQLVESGGGLVQAGGSLRLSCAASGFTIYYYAMGWYRQAPGKVRELVASITSGGSTYYADSVKGRFTISRDNAMNTVYLQMNSLKPEDTAVYYCAQTRFHSKEGDYWGQGTQVTVSS | low polyreactivity
9 | QVQLVESGGGLVQAGGSLRLSCAASGITFQKNAMGWYSQAPGKERELVAGITWRGSTYYADSVKGRFTISRDNAKNTVYLQRNSLKPEDTAVYYCAADPFSWYRSVRGEYWGQGTQVTVSS | low polyreactivity
10 | QVQLVESGGGIVQAGGSLRLSCAASGNIFHKNAMGWYRQAPGKERELVASISCSGGSTYYADSVKGRFTISRDNAKNTVYLQMNSLKPEDTAVYYCATDAFGYPVNRYALNDYWGQGTQVTVSS | low polyreactivity
11 | QFQLVESGGGLVQAGGSLRSSCAASGFIFREYAMGWYRQAPGKERELVAAISTSGGDTYYADSVKGRFTISRDNAKNTVYLQMNSLKPEDTAVYYCAAEYDGYWDSNRGNYWGQGTQVTVSS | low polyreactivity
12 | QVQLVESGGGLVQAGGSLRLSCAASGSIFFFNAMGWYRQAPGKERELVAAISESGTSTYYADSVKGRFTISRDNAKNTVYLQMNSLKPEDAAVYYCNVVFRYAYGVYYTPEFYYWGQGTQVTVSS | low polyreactivity
13 | QVQLVESGGGLVQAGGSLRLSCAASGSIFSGYVMGWYRQAPGKERELVAAISGSGGSTYYADSVKGRFTISRDNAKNTVYLQMNSLKPEDTAVYYCNKGLSRSYWWVDYWGQGTQVTVSS | low polyreactivity
14 | QVQLVESGGGLVQAGGSLRLSCAASGSIIILYAMGWYRQAPGKERELVAAISLRGGRTYYADSVKGRFTISRDNAKNTVYLQMNSLKPEVTSVYYCATPVTNGFDYWGQGTQVTVSS | high polyreactivity
15 | QVQLVESGGGLVQAGGSLRLSCAASGSTFYANAMGWYRQAPGKERELVATINRRGNKYYADSVKGRFTISRDHAKNTVYLQMNSLKPEDTAVYYCAADAWVGWHDEYDYWGQGTQVTVSS | low polyreactivity
16 | QVQLVESGGGLLQAGGSLRLSSAASVRIFPSYAMGWYRQARGKEREFVAAITRGGASTYYADSVKGRFTISRDNAKNTVYFEMNSLKPEVTAVYYCAKDAYRYGGFSWTTGMDYWGQGTQVTVSA | high polyreactivity
17 | QVQLVESGGGLVQAGGSLRLSCAASGFTFPSYAMGWYRQAPGKDREFVAGITKGGGNTYYADSVKGRFTISRDNAKNNVYLQMNSLKPEDTAVYYCAKCPLPRAGVKFDYWGQGTQVTVSS | low polyreactivity
18 | QVQLVESGGGLLQAGGSLRLSCPASGRIFDPYTMGSYRQAPGKERELVARITRRGGRTYYADSVKGRFTISRDNAKNTVYLQMNSLKPEDTAVYYCNADFSYRYYGAYDDWGQGTQVTVSS | high polyreactivity
19 | QVQLVESGGGLVQAGGSLRLTCAASGITFTQNAMGWYRQAPGKERELVAAISRSGTITYYADSVKGRFTISRDHAKNTVYLQMNSLKPEDTAVYYCNKLRPQRSWEYDYWGQGTQVTVSS | high polyreactivity
20 | QVQLVESGGGLVQAGGSLRLSCAASGSTSRGYAMGWYRQAPGEERELVASITLSGGNTYYADSVKGRFTISRDNAKNTVYLQMNSLKPEDTAVYYCAADDRGSSYGHFTVEYGYWGQGTQVTVSS | low polyreactivity
21 | QVQLVESGGGLVQAGGSLRLSCAASGRTFGIYAMGWYRQAPGTERQMVADITSGGDTYYADSVKGRFTISRDNAKNTVYLQMNSLKPEDTAVYYCAADIYPDWIYLLYGYWGQGTQVNVSS | low polyreactivity
22 | QVQLVESGGRLVQAGGSLRLSCAASGSIFIPNAMGWYRQAPGKERELVAAITVSGGITYYADSVKGRFTISRDNAKNSVYLQMNSLKPEDTAVYYCAADFTIYYILEYDYWGQGTQVTVSS | low polyreactivity

Row | Sequence | polyreactivity (PSR sort gate)
23 | QVQLVESGGGLVQAGGSLRLSCAASGLIFSGYAMGWYRQAPGKERELVAAISRGGGRTSYADSVKGRFTISRDNAKNTVYLQMNSLKPEDTAVYYCAKDPRYLRYDHWGQGTQVTVSS | high polyreactivity
24 | QVQLVESGGGLVQAGGSLRLICAASGSIQDWNAMGWYRQAPGKERELVAAITNGVSTHYADSVKGRFTISRDNAKNTVYLQMNSLKPEDTAVYYCAKAFWWRPEWWLRSARGSWGLGTQVTVSS | low polyreactivity
25 | QVQLVESGGGLVQAGGSLRLSCAASGSTFGPYAMGWYRQAPGKERELVAGITWSSASTYYADSVKGRFTISRDNAKNTVYLQMNSLKPEDTAVYYCIADSESTDYDYWGQGTQVTVSS | low polyreactivity
26 | QVQLVESGGGLVQAGGTLRLSCAASGSTYEVYAMGWYRQAPGTERELVAVITGNGGSTNYADSVKGRFTISRDNAKNTVYLQMNSLKPEDTAVYYCAADFYTFVRSDYWGQGTQVTVSS | low polyreactivity
27 | QVQLVESGGCLVQAGGSLRLSCAASGFIFWDYAMGWYRQAPGKERELVAAISDSGGDKYYADSVKGRFTISRDNAKNTVYLQMNSLKPEDTAVYYCAADVELWVFRGQQYDYWGQGTQVTVSS | low polyreactivity
28 | QVQLVESGGGLVQAGGSLRLSSAASGFIFNTNAMGWYRQAPGKERELVAAISGGGSTYYAVSVKGRFTLSRDNAKQTVYLQMNSLKPDDTAVYYCAAVPFYRYDYWGQGTQVTVSS | low polyreactivity
29 | QVQLVESGGGLVQAGGSLRLSCAASGIIFWPYAMGWYRQAPGKERELVASISTGGSTHYADSVKGRFTISRDNAKNTVYLQLNSLKPEDTAVYYCNADVGPTYSYDYWGQGTQVTVSS | low polyreactivity
30 | QDQLVESWVGLVQAGGSLRLSYAASGYIIKYNAMGRYRHAPRKERELVAAISSIGGRTYYADSVKARFTISRDNAKNNVYLQINILKPEDTAVYYFNAVGGRYTGWRYDYWGQGTQVTVSS | high polyreactivity
31 | QVHLVESGGALVQAGGSLRLSCAASGLTFVTNSMGWYRQAPGKERELVAAISLGGGSTYYADSVKGRFTISLDNAKNTVYLQMNSLKPEDTAVYYCAAVPGWVRQAVGWVLSLLDYCGQGTQVTVSS | low polyreactivity
32 | QVQLVESGGGLVHAGGSHRLSCAASGRTFPGYPMGWYIPAPGTERELVAGISYRGGSTYFADSVKGRFTISRDNAKNTVYLQMNSLKPEDTAVYFCARDYSRHKGDYWGQGTQGTVSS | low polyreactivity
33 | QVQLVDSGGGLVQAGGSLRLSCAASGRTFYGNAMGWYRQAPGKARELVAAINRDGGTYYADSVKGRFTISRDNAKNTVYLQMNSLKPEDTAVYYCNAVKRGIRYGYWGQGTQVTVSS | high polyreactivity
34 | QVQLVESGGGLVQAGGSLRLSCAASGFTFGYYAMGWYRQAPGKERELVAAISSSGGSTYYADSVKGRFTISRDNAKNTVYLQMNSLKPEDTAVYYCAVVVFSRVYRYFTSDYWGQGTQVTVSS | high polyreactivity
35 | QVQLVQSGGGLVQAGGSLRLSCAGSGYILQINAMGWYRQAPGKERELVAAISISGGNTYYADSVKGRFTNSRDNAKNTVYLQMNSLKPEDSAVYYCAAYRFYSYLVRYGLLLAYYYWGQGTQVTVSS | low polyreactivity
36 | QVQLVESGGGLVQAGGTLRLSCAASGITFDYNAMGWYRQAPGKERELVATISDTGSTNYADSVKGRFTISRDNAKNTVYLQMNSLKPEDTAVYYCAADGLGDYHPKWEYQEYDYWGQGTQVTVSS | low polyreactivity
37 | QVQLVESGGGLVQAGGSLRLSCAASGYTFPYYTMGWYRQAPGKERELVATITRRGDSTYYADSVKGRFTLSRDNAKNTVYLQMNSLKPEDTAVYYCNTASYGRHQFRKSSKMDYWGQGTQVTVSS | high polyreactivity
38 | QVQLVESGGGLVQAGGSLRLSCAASGRIFGGYARGWYRQAPGKERELVAVINGGTSTKYADSVKGRFTISRDNAKNTVYLQMNSLKPEDTAVYYCAKTRHDSLQNRNRYDYWGQGTQVTVSS | low polyreactivity
39 | QVQLVESGGGLVQAGGSLRLSCAASGSTFLTNAMGWYRQAPGKERELVAAIRTSGGSTYYADSVKGRFTISRDNAKNTVYLQMNSLKPEDTAVYYCAASYRRRRFSEYYYWGQGTQVTVSS | high polyreactivity
40 | QVQLVESGGGLVQAGGSLRLSCAASGYTFASYTLGWYRQAPGKERELVATISRGGGRTYYADSVKGRFTISRDNAKNTVYLQMNSLKPEDTAVYYCAARWWYYNGGRDYWGQGTQVTVSS | high polyreactivity
41 | QVQLVESGGGLVQAGGSLRLSCAASGGTFCRNVMGWYRQAPGKERELVAAISRRGSSTYYADSVKGRFTISRDNAKNTVYLQMNSLKPEDTAVYYCARDQYTGADEAGDDYWGQGTQVTVSS | high polyreactivity
42 | QVQLVESGGGLVQAGGSLRLSCAASGIIFDQNVMGWYRQAPGKERELVAAIRQTGGSTYYADSVKGRFTISRDNAKNTVYLQMNSLKPEDTAVYYCNAKPPGWFWGGFSYNRYYYWGQGTQVTVSS | low polyreactivity
43 | QVQLVESGGGLVPAGGSLRLSCAASGSTFVSKAMGWYRQAPGKERELLAAISTSGGSTYNADSVKGRVTISGDNAKNTVYLQMNSLKPEDTAVYYCAKLLAGGFRIWQDYDYWGQGTQVTVSS | low polyreactivity

Reference: the nanobody polyreactivity screen of Harvey et al. (2022)
